Measured values as given in patent publication US20150125397A1, “DUAL SPECIFIC BINDING PROTEINS DIRECTED AGAINST IMMUNE CELL RECEPTORS AND AUTOANTIGENS” (ABBVIE INC., priority 2013, published 2015).
Values belong to the molecule of their own block, whether it stands above or below them.

Experiments:
[1] = molecular target: Human IgM (Homo sapiens, UniProt P01871); experiment: IgM binding assay (human IgM)
[2] = molecular target: T1, mIgM (Mus musculus, UniProt P01872); experiment: IgM binding ELISA (mouse IgM); details: mIgM-coated ELISA; half-log dilution 10 μg/ml-0.01 μg/ml
T1 sequence (P01872 1-454): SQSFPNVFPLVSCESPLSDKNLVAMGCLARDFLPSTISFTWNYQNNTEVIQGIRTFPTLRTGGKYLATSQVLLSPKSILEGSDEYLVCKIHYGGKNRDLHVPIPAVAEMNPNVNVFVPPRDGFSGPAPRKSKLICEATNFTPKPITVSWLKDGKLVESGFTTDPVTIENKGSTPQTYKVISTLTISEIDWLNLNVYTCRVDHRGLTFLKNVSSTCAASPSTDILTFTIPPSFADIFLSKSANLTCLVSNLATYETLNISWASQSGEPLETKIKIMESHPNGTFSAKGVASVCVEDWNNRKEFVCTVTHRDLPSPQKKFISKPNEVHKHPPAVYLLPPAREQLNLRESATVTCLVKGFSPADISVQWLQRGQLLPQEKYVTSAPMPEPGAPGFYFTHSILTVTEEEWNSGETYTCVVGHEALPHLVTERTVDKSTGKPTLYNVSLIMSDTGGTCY
Procedure: Reactivity of the DVD-Ig proteins with mIgM was determined by enzyme-linked immunosorbent assay (ELISA). Briefly, each well of an Ultra Cruz 96 well microtiter plate (Santa Cruz Biotechnology, Dallas, Tex.) was coated with mIgM at a concentration of 1 μg/ml in 100 μl of PBS. The plate was covered in plastic wrap and incubated overnight at 4° C. Each well of the plate was then washed 3× with 300 μl of PBST. After the final wash, 200 μl of blocking buffer (1% BSA in PBS) was added to each well and the plate incubated at RT for 2 hours. The plate was then washed as above. Rows B-H of the microtiter plate were filled with 100 μl of dilution buffer (1% BSA in PBST). The DVD-Ig proteins were then diluted to […] in dilution buffer and 147 μl of a DVD-Ig protein was added in duplicate to row A of a 96 well plate. For a ½ log dilution, 47 μl was transferred from row A to row B. The pipette tips were replaced with clean tips and 47 μl from row B was transferred to row C. The serial transfers were repeated as above until row G. To assess the binding of the secondary detection reagent to the coated IgM, the final transfer 47 μl was only transferred from G1-G10 to H1-H10 and wells H11 and H12 were left containing 100 μl of dilution buffer. To maintain a 100 μl assay volume, 47 μl was removed from wells H1-H10 and G11-G12 and discarded. After the serial dilution was completed, the plate was incubated for 1-2 hours at RT. The plate was washed as above and then 100 μl of horseradish peroxidase conjugated goat α-hIgG Fc specific, diluted 1:3,000 in dilution buffer, was added to each well. The plate was incubated for 1 hour at RT and then washed 4× as above. The plate was developed by adding 100 μl of 3′,3′,5′,5′-Tetramethylbenzidine (TMB) substrate solution to each well and incubating the plate in the dark for 10-15 minutes. The enzymatic reaction was stopped by adding 100 μl of 1M H2SO4 to each well. The plate was read at 450 nm on an EnVision 2102 multilabel reader (Perkin Elmer, Waltham, Mass.).
DVD-Ig proteins DVD3751-DVD3760 were characterized by IgM binding assay at half-log dilution starting at 10 μg/ml-0.01 μg/ml according to the method of Example 2.5.
IgM binding ELISA: Titrations of the DVD-Ig™ proteins (10 μg/ml to 0.01 μg/ml) were added to ELISA plates coated with murine IgM. Bound antibody was detected with biotinylated anti-human IgG and streptavidin-HRP. EC50 were calculated from the titration curve using Prism6.

[3] = test system: DNA; experiment: Antinuclear antibody (ANA) test; type: binding; parameters: key to ANA score, relative result: (X)-(XXX) indicates relative results; (XX): (X)-(XXX) indicates relative results; (X)-(XXX) indicates relative results; details: for ANA score / ANA score, relative result: ANA staining at 10 μg/ml
Procedure: The cloned BWR4 and PA4 antibodies as well as the DVD-Ig proteins were tested for ANA reactivity using the ANA test kit. Briefly, the DVD-Ig proteins and antibodies were diluted to […] in blocking buffer (1% BSA in PBS). The DVD-Ig proteins and antibodies were added to separate wells of an ANA slide at 50 μl/well and incubated in a moist chamber for 2 hours at room temperature (RT). The wells were then washed 3× with PBS. To detect bound antibodies, Alexa Fluor 488 conjugated goat α-human IgG (α-hIgG) was then added at a dilution of 1:1,000 and the slide incubated in a moist chamber for 1 hour. Unbound detecting antibody was removed by immersing the slide in a jar containing PBS and incubating for 10 minutes at RT with gentle rocking. The prior step was repeated 2× and 10 μl of Prolong® Gold Antifade was added to each well and a 24 mm×60 mm #1 cover glass seated on top. The covered slide was incubated overnight at RT and then sealed by applying clear nail polish to the edges. Binding of the DVD-Ig proteins and antibodies to the slides was assessed by fluorescence microscopy.
DVD-Ig proteins DVD3751-DVD3760 were characterized by antinuclear antibody (ANA) staining at 10 μg/ml according to the method of Example 2.4.
ANA: HEp-2 human tissue culture substrate slides were incubated with 5 μg/ml of the anti-DNA-IgG2a or the DVD-Ig™ binding protein for 2 hours at RT. The slides were washed and bound antibodies were detected with Alexa-488 goat anti-human antibody or DyLight 488 goat anti-mouse antibody.

[4] = test system: AM14 WT B cells; experiment: [3H]thymidine incorporation, BCR/TLR9 stimulation of AM14 WT B cells; type: cell-based, mouse; parameters: key to 3H incorporation AM14 WT, relative result: (X)-(XXX) indicates relative results; (XX): (X)-(XXX) indicates relative results; (X)-(XXX) indicates relative results; level of 3H incorporation / 3H incorporation AM14 WT: dose or concentration left out as unconfirmed; details: for 3H incorporation AM14 WT: 24 hours, then 6 hours pulse
From the text: (§1) The AM14 B cell receptor (BCR) transgenic mouse has been described previously (Sweet et al. (2010) Autoimmun 43(8): 607-18). Briefly, AM14 is a BCR comprising the AM14 heavy chain and the Vk8 light chain that recognizes murine IgG2a (mIgG2a) of the “a” allotype. Between 95-98% of B cells in a mouse positive for the AM14 heavy chain and Vk8 light chain express the AM14 BCR. To generate AM14 B cells that are deficient in TLR9, TLR7 or FcγRIIB, the AM14 and Vk8 genes were bred to the appropriate knock out mice.
(§2) Primary murine B cells were purified by positive selection using BD Imag™ CD45R/B220 magnetic particles (BD Biosciences, San Jose, Calif.). Briefly, B cells were cultured in RPMI containing, pencillin-streptomycin, β-mercaptoethanol, and 5% heat-inactivated fetal calf serum (FCS) in 96 well flat bottom plates at a density of 4×10^5 cells/well. For stimulation through the BCR and TLR9, B cells were treated with a titration of 0.3 μg/ml-0.03 μg/ml of PA4 or 5 μg/ml to 0.15 μg/ml of a DVD-Ig protein (DVD3751, DVD3752, DVD3754, DVD3755, DVD3759 and DVD3760), unless otherwise noted. Cells were also treated with 1 μg/ml 1826, an experimental ligand for TLR9, as a control. After 24 hours, the cells were pulsed for 6 hours with [3H]thymidine (Perkin Elmer, Waltham Mass.). Incorporation of [3H]thymidine was quantified via a liquid scintillation beta counter (Trilux 1450 MicroBeta, PerkinElmer) according to standard methods.
(§3) DVD-Ig proteins DVD3751-DVD3760 were characterized by ^3H incorporation at […] according to the method of Example 2.6.

[5] = test system: AM14 TLR9−/− B cells; experiment: [3H]thymidine incorporation, BCR/TLR9 stimulation of AM14 TLR9-/- B cells; type: cell-based, mouse; details: at 5 mg/ml; 24 hours, then 6 hours pulse
From the text: as §1, §2, §3

Sequence of Human IgM (P01871 1-433 limits assumed): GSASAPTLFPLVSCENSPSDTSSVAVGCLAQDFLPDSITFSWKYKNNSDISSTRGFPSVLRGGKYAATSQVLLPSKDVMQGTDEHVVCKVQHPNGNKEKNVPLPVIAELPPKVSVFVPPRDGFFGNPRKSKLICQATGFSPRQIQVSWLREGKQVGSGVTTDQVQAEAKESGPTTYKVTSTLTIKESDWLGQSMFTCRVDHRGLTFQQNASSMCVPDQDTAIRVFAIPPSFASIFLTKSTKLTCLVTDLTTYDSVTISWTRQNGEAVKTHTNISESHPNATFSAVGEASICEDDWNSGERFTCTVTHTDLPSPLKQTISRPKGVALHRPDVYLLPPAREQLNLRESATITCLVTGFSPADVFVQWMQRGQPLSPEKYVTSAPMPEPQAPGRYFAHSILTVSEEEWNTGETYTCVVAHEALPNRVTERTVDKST
Sequence of Human IgM (P01591 23-159 partner): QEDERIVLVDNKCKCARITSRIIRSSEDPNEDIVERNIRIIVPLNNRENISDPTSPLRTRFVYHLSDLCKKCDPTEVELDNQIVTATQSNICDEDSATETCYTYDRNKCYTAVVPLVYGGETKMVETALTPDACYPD

- potency in human IgM binding assay [1]: highest potency
B1: DVD3766: DVD-Ig: VD1 hIgM (HB-57.3), GS linker, VD2 DNA (PA4); heavy SEQ ID NO 76, light 77 (antibody)
heavy: QVQLQQPGAEFVKPGAPVKLSCKASGYPFTTYWVNWMKQRPGRGLEWIGRIDPYDSETLYNQKFKDKATLTVDKSSSTAYIQLSSLTSEDSAVYYCARETYDYPFAYWGQGTLVTVSSGGGGSGGGGSEVQLVESGGGLVKPGGSLKLSCVASGFTFSTYAMSWVRQTPTKRLEWVATISRGGVSTYYPDTVKGRFTISRDNAKNTLYLQMSSLRSEDTAMYYCARPPTIVTTWFAYWGQGTLVTVSS
light: DIVMTQSPSSLAMSVGQKVTMSCKSSQSLLNSSNQKNYLAWYQQKPGQSPELLVYFASTRESGVPDRFIGSGSGTDFTLTISSVQAEDLADYFCQQHYSTPFTFGSETKLEIKRGGSGGGGSGDVVMTQTPLSLPVSLGDQASISCRSSQSLVHSNGNTYLHWYLQKPGQSPKLLIYKVSNRFSGVPDRFSGSGSGTDFTLKISRVEAEDLGAYFCSQSTHVPYTFGGPTRLEIKR

- IgM Binding EC50 [2]: 0.09709 µg/mL
B2: DVD3755: DVD-Ig: VD1 DNA(PA4), LS linker, VD2 mIgM (B7.6); heavy SEQ ID NO 56, light 57 (antibody)
heavy: EVQLVESGGGLVKPGGSLKLSCVASGFTFSTYAMSWVRQTPTKRLEWVATISRGGVSTYYPDTVKGRFTISRDNAKNTLYLQMSSLRSEDTAMYYCARPPTIVTTWFAYWGQGTLVTVSSASTKGPSVFPLAPQVQLKESGPGLVKPSLTLSLTCTVSGFSLNGYGVIWVRQPPGKGLEWMGVIWGNGNTNYNSTLKSRLSISRDTSKSQVFLKMNNLQTEDTAMYFCARSENYYSSPGYFAYWGQGTLVTVSS
light: DVVMTQTPLSLPVSLGDQASISCRSSQSLVHSNGNTYLHWYLQKPGQSPKLLIYKVSNRFSGVPDRFSGSGSGTDFTLKISRVEAEDLGAYFCSQSTHVPYTFGGPTRLEIKRTVAAPNTVMTQSPTSMFISVGDRVTMNCKASQNVGSDVDWYQQKTGQSPKLLISGTSNRYTGVPDRFTGSGSGTDFTLTISNMQAEDLAVYYCLQYNYNPTFGAGTKLELKR
- level of ANA staining ([3]; 10 μg/ml, among DVD3751-DVD3760): highest level of staining
- ANA score [3]: 4.5
- ANA score, relative result [3]: (XXX)
- 3H incorporation AM14 WT, relative result [4]: (X)
- 3H incorporation AM14 WT [4]: (8498)
- 3H incorporation AM14 TLR9−/− [5]: (402)

- IgM Binding EC50 [2]: 0.1909 µg/mL
B3: DVD3751: DVD-Ig: VD1 DNA(PA4), GS linker, VD2 mIgM (B7.6); heavy SEQ ID NO 48, light 49 (antibody)
heavy: EVQLVESGGGLVKPGGSLKLSCVASGFTFSTYAMSWVRQTPTKRLEWVATISRGGVSTYYPDTVKGRFTISRDNAKNTLYLQMSSLRSEDTAMYYCARPPTIVTTWFAYWGQGTLVTVSSGGGGSGGGGSQVQLKESGPGLVKPSLTLSLTCTVSGFSLNGYGVIWVRQPPGKGLEWMGVIWGNGNTNYNSTLKSRLSISRDTSKSQVFLKMNNLQTEDTAMYFCARSENYYSSPGYFAYWGQGTLVTVSS
light: DVVMTQTPLSLPVSLGDQASISCRSSQSLVHSNGNTYLHWYLQKPGQSPKLLIYKVSNRFSGVPDRFSGSGSGTDFTLKISRVEAEDLGAYFCSQSTHVPYTFGGPTRLEIKRGGSGGGGSGNTVMTQSPTSMFISVGDRVTMNCKASQNVGSDVDWYQQKTGQSPKLLISGTSNRYTGVPDRFTGSGSGTDFTLTISNMQAEDLAVYYCLQYNYNPTFGAGTKLELKR
- ANA score [3]: 2
- ANA score, relative result [3]: (X)
- 3H incorporation AM14 WT, relative result [4]: (XXX)
- 3H incorporation AM14 WT [4]: (35554)
- level of 3H incorporation ([4]; among DVD3751-DVD3760): highest level of ^3H incorporation
- 3H incorporation AM14 TLR9−/− [5]: (1184)

- potency in human IgM binding assay [1]: highest potency
B4: DVD3767: DVD-Ig: VD1 hIgM (HB-57.3), SS linker, VD2 DNA (PA4); heavy SEQ ID NO 78, light 79 (antibody)
heavy: QVQLQQPGAEFVKPGAPVKLSCKASGYPFTTYWVNWMKQRPGRGLEWIGRIDPYDSETLYNQKFKDKATLTVDKSSSTAYIQLSSLTSEDSAVYYCARETYDYPFAYWGQGTLVTVSSASTKGPEVQLVESGGGLVKPGGSLKLSCVASGFTFSTYAMSWVRQTPTKRLEWVATISRGGVSTYYPDTVKGRFTISRDNAKNTLYLQMSSLRSEDTAMYYCARPPTIVTTWFAYWGQGTLVTVSS
light: DIVMTQSPSSLAMSVGQKVTMSCKSSQSLLNSSNQKNYLAWYQQKPGQSPELLVYFASTRESGVPDRFIGSGSGTDFTLTISSVQAEDLADYFCQQHYSTPFTFGSETKLEIKRTVAAPDVVMTQTPLSLPVSLGDQASISCRSSQSLVHSNGNTYLHWYLQKPGQSPKLLIYKVSNRFSGVPDRFSGSGSGTDFTLKISRVEAEDLGAYFCSQSTHVPYTFGGPTRLEIKR
